Data reported in the supplement of paper PMC9112550, “Optimization of the antimicrobial peptide Bac7 by deep mutational scanning” (BMC Biology, 2022).

Test system: Escherichia coli TOP10
Assay: shrunken log2 fold change of peptide-encoding DNA abundance (4.5 h post-induction vs induction); higher = less antimicrobial activity (less host growth inhibition)
Conditions: time post-induction: 4.5 h; library: site-saturation at positions 5, 18, 19, 20
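Also: peptides expressed intracellularly from a pBAD plasmid library in pooled LB shake-flask culture, induced with 0.3% L-arabinose, DNA abundance read by NGS, three biological replicates, DESeq2 with apeglm shrinkage.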

| Sequence | shrunken log2 fold change |
| --- | --- |
| RRIRIRPPRLPRPRPRPEESPRP | 0.124 |
| RRIRLRPPRLPRPRPRPLFHPRP | -0.233 |
| RRIRMRPPRLPRPRPRPGIPPRP | 0.726 |
| RRIRERPPRLPRPRPRPSLFPRP | -0.44 |
| RRIRFRPPRLPRPRPRPPSWPRP | 0.4 |
| RRIRWRPPRLPRPRPRPPVFPRP | 0.384 |
| RRIRSRPPRLPRPRPRPITQPRP | -0.0534 |
| RRIRERPPRLPRPRPRPCVLPRP | 0.0248 |
| RRIRTRPPRLPRPRPRPKSIPRP | -0.194 |
| RRIRSRPPRLPRPRPRPLTTPRP | -0.127 |
| RRIRERPPRLPRPRPRPDKEPRP | -0.0205 |
| RRIRERPPRLPRPRPRPKAQPRP | 0.221 |
| RRIRPRPPRLPRPRPRPAAPPRP | 0.467 |
| RRIRVRPPRLPRPRPRPRNEPRP | 0.115 |
| RRIRSRPPRLPRPRPRPWIIPRP | -0.159 |
| RRIRLRPPRLPRPRPRPSTVPRP | -0.938 |
| RRIRWRPPRLPRPRPRPLHQPRP | 0.0809 |
| RRIRSRPPRLPRPRPRPVFFPRP | 0.142 |
| RRIRTRPPRLPRPRPRPHWLPRP | 0.122 |
| RRIRARPPRLPRPRPRPLMLPRP | 0.32 |
| RRIRNRPPRLPRPRPRPDPGPRP | 0.0569 |
| RRIRPRPPRLPRPRPRPWYDPRP | -0.00228 |

| Sequence | shrunken log2 fold change |
| --- | --- |
| RRIRDRPPRLPRPRPRPTSFPRP | -0.0323 |
| RRIRERPPRLPRPRPRPMFLPRP | -0.206 |
| RRIRFRPPRLPRPRPRPIMTPRP | -0.368 |
| RRIRLRPPRLPRPRPRPRFDPRP | -0.053 |
| RRIRDRPPRLPRPRPRPDVTPRP | 0.149 |
| RRIRARPPRLPRPRPRPMQLPRP | 0.206 |
| RRIRWRPPRLPRPRPRPTEPPRP | -0.0787 |
| RRIRDRPPRLPRPRPRPFMNPRP | -0.117 |
| RRIRLRPPRLPRPRPRPQMIPRP | -0.173 |
| RRIRQRPPRLPRPRPRPNSMPRP | -0.25 |
| RRIRLRPPRLPRPRPRPQFCPRP | -0.137 |
| RRIRERPPRLPRPRPRPEDWPRP | 0.351 |
| RRIRQRPPRLPRPRPRPWLKPRP | 0.0706 |
| RRIRIRPPRLPRPRPRPKKGPRP | -0.252 |
| RRIRPRPPRLPRPRPRPMIRPRP | 0.339 |
| RRIRMRPPRLPRPRPRPTVWPRP | 0.736 |
| RRIRVRPPRLPRPRPRPMSEPRP | 0.0558 |
| RRIRWRPPRLPRPRPRPRCLPRP | 0.164 |
| RRIRLRPPRLPRPRPRPNMAPRP | -0.511 |
| RRIRARPPRLPRPRPRPWSCPRP | -0.045 |
| RRIRRRPPRLPRPRPRPPIPPRP | 0.271 |
| RRIRIRPPRLPRPRPRPTKCPRP | -0.696 |

| Sequence | shrunken log2 fold change |
| --- | --- |
| RRIRARPPRLPRPRPRPHSWPRP | 0.475 |
| RRIRYRPPRLPRPRPRPRLSPRP | -0.0417 |
| RRIRPRPPRLPRPRPRPTGDPRP | 0.649 |
| RRIRKRPPRLPRPRPRPSKIPRP | 0.154 |
| RRIRARPPRLPRPRPRPCESPRP | 0.214 |
| RRIRYRPPRLPRPRPRPAEIPRP | -0.148 |
| RRIRARPPRLPRPRPRPSKHPRP | -0.11 |
| RRIRNRPPRLPRPRPRPWHNPRP | -0.146 |
| RRIRERPPRLPRPRPRPFMAPRP | -0.891 |
| RRIRPRPPRLPRPRPRPQVQPRP | -0.148 |
| RRIRQRPPRLPRPRPRPIVTPRP | -0.364 |
| RRIRDRPPRLPRPRPRPVCAPRP | 1.12 |
| RRIRVRPPRLPRPRPRPHDWPRP | 0.00123 |
| RRIRCRPPRLPRPRPRPYISPRP | -0.637 |
| RRIRARPPRLPRPRPRPVDWPRP | 1.01 |
| RRIRVRPPRLPRPRPRPQAVPRP | -0.0188 |
| RRIRVRPPRLPRPRPRPPVSPRP | 0.847 |
| RRIRVRPPRLPRPRPRPPVTPRP | -0.0902 |
| RRIRTRPPRLPRPRPRPPIQPRP | 0.0675 |
| RRIRRRPPRLPRPRPRPLLHPRP | 0.295 |
| RRIRMRPPRLPRPRPRPIRPPRP | -0.127 |
| RRIRMRPPRLPRPRPRPTCRPRP | 0.32 |

| Sequence | shrunken log2 fold change |
| --- | --- |
| RRIRIRPPRLPRPRPRPGHVPRP | -0.0457 |
| RRIRHRPPRLPRPRPRPEYDPRP | -0.0789 |
| RRIRLRPPRLPRPRPRPESDPRP | -0.0845 |
| RRIRLRPPRLPRPRPRPPLFPRP | 0.412 |
| RRIRARPPRLPRPRPRPGGHPRP | 0.115 |
| RRIRQRPPRLPRPRPRPSHFPRP | 0.0685 |
| RRIRIRPPRLPRPRPRPVRWPRP | 0.474 |
| RRIRNRPPRLPRPRPRPPPLPRP | 0.732 |
| RRIRKRPPRLPRPRPRPIDSPRP | 0.229 |
| RRIRERPPRLPRPRPRPEQFPRP | -0.0286 |
| RRIRSRPPRLPRPRPRPWESPRP | 0.0145 |
| RRIRRRPPRLPRPRPRPELYPRP | 0.247 |
| RRIRIRPPRLPRPRPRPRQMPRP | 0.0961 |
| RRIRFRPPRLPRPRPRPIIYPRP | -0.671 |
| RRIRMRPPRLPRPRPRPGLMPRP | 0.518 |
| RRIRYRPPRLPRPRPRPSCGPRP | -0.184 |
| RRIRMRPPRLPRPRPRPQMAPRP | 0.349 |
| RRIRARPPRLPRPRPRPHWTPRP | -0.0108 |
| RRIRLRPPRLPRPRPRPAMKPRP | -0.0543 |
| RRIRPRPPRLPRPRPRPKCTPRP | -0.0758 |
| RRIRVRPPRLPRPRPRPMWYPRP | -0.62 |
| RRIRRRPPRLPRPRPRPQSCPRP | 0.107 |

| Sequence | shrunken log2 fold change |
| --- | --- |
| RRIRPRPPRLPRPRPRPDMTPRP | -0.293 |
| RRIRWRPPRLPRPRPRPMRTPRP | 0.273 |
| RRIRKRPPRLPRPRPRPIIEPRP | -0.0922 |
| RRIRVRPPRLPRPRPRPVRAPRP | 0.616 |
| RRIRVRPPRLPRPRPRPNKYPRP | -0.668 |
| RRIRERPPRLPRPRPRPSLKPRP | -0.217 |
| RRIRLRPPRLPRPRPRPVSSPRP | 0.242 |
| RRIRMRPPRLPRPRPRPESNPRP | 0.102 |
| RRIRERPPRLPRPRPRPCKDPRP | -0.117 |
| RRIRKRPPRLPRPRPRPDATPRP | 2.81 |
| RRIRPRPPRLPRPRPRPNAEPRP | 0.154 |
| RRIRRRPPRLPRPRPRPRGYPRP | 0.398 |
| RRIRWRPPRLPRPRPRPFYSPRP | -0.681 |
| RRIRLRPPRLPRPRPRPWRCPRP | 0.336 |
| RRIRTRPPRLPRPRPRPEHWPRP | -0.00863 |
| RRIRQRPPRLPRPRPRPINKPRP | -0.318 |
| RRIRRRPPRLPRPRPRPSCVPRP | 0.259 |
| RRIRFRPPRLPRPRPRPMDYPRP | -0.00172 |
| RRIRPRPPRLPRPRPRPEFQPRP | 0.0778 |
| RRIRVRPPRLPRPRPRPQWMPRP | -0.105 |
| RRIRVRPPRLPRPRPRPRKNPRP | 0.0784 |
